Reference: patent US20260231968A1, “AN ECO-FRIENDLY, SUSTAINABLE FOOD PRESERVATIVE” (priority 2023, published 2026)

Columns and labels:
Format in all cases: cell-based
[1] = test system: microbial sample isolated from soy protein; assay: Growth of microbes isolated from soy protein in LB or RPMI
Experimental: Psoriasin was applied to a microbial sample isolated from soy protein that was incubated in RPMI or LB medium, with no addition of external antibiotics. Liquid RPMI 1640 (5 ml) medium w/o Pen/strep antibiotics were inoculated with a colony that grew on an LB agarose plate from Example 8. The inoculated medium was incubated in a 37° C. shaker incubator overnight. Only the medium without antibiotics became turbid as a result of the endogenic bacterial growth. The isolated bacteria were used in dose-response experiments in RPMI 1640 and LB. Microbial growth was monitored in a 96-well plate by reading the absorbance at 600 nm every 10 minutes while adjusting the temperature to 37° C. In the rich LB medium, psoriasin was effective at a concentration of 50 μM (FIG. 9A). In RPMI, psoriasin was effective in concentrations below 1 μM (FIG. 9B).

Aspergillus flavus = assay: Microbial Growth Inhibition Test, broth microdilution optical method
Experimental: (§1) The IC90 of psoriasin for several microorganisms was determined by Microbial Growth Inhibition Tests. The tests were performed using the Broth Microdilution Optical Method based on standardized protocols M27 (yeasts) and M38 (filamentous fungi) of the Clinical and Laboratory Standards Institute. […] MOPS, LB (Luria-Bertani), and TSB ([…]) medium types were used, depending on the species being tested. The absorbance was calibrated to each species, and was measured between 450 nm to 650 nm.
In addition, ethyl lauroyl arginate (LAE), a commercially available food preservative, was tested in similar growth conditions as a reference.

Enterobacter cloacae = assay: as above; conditions: TSB
Experimental: as §1

Escherichia coli = assay: as above; conditions: LB, TSB
Experimental: as §1

Lactobacillus saeki = assay: as above; conditions: TSB
Experimental: as §1

Lactococcus lactis = assay: as above; conditions: TSB
Experimental: as §1

Listeria monocytogenes = assay: as above; conditions: LB, TSB
Experimental: as §1

B1: psoriasin: Recombinant human psoriasin (S100a7) containing a histidine tag, amino acid sequence SEQ ID NO: 11, expression vector pET-28a (protein, listed as Homo sapiens)
chain: MSNTQAERSIIGMIDMFHKYTRRDDKIEKPSLLTMMKENFPNFLSACDKKGTNYLADVFEKKDKNEDKKIDFSEFLSLLGDIATDYHKQSHGAAPCSGGSQ
effective concentration against isolated microbes ([1]; RPMI 1640, 37° C): below 1 μM
effective concentration against isolated microbes ([1]; rich LB medium, 37° C): 50 µM
IC90 (Aspergillus flavus; Aspergillus flavus, RPMI-MOPS): 0.6 µM
inhibition of A. flavus growth (Aspergillus flavus; concentrations of 0.325 μM and above): nearly all growth
inhibition of detectable A. flavus growth (Aspergillus flavus; concentrations of 0.6 μM and above): 100%
IC90 (Enterobacter cloacae): 28 µM
IC90 (Escherichia coli): 100 µM
IC90 (Lactobacillus saeki): 50 µM
IC90 (Lactococcus lactis): 45 µM
IC90 (Listeria monocytogenes): 75 µM
